# Measured values published in US20140348785A1.
# Residue numbers refer to the chain shown, from its start. Numbers in names are those of the source.
# B1: 10E8 Fab (antigen binding fragment of 10E8) (Fab, V domains shown)
# VH: EVQLVESGGGLVKPGGSLRLSCSASGFDFDNAWMTWVRQPPGKGLEWVGRITGPGEGWSVDYAAPVEGRFTISRLNSINFLYLEMNNLRMEDSGLYFCARTGKYYDFWSGYPPGEEYFQDWGRGTLVTVSS
# VL: SYELTQETGVSVALGRTVTITCRGDSLRSHYASWYQKKPGQAPILLFYGKNNRPSGVPDRFSGSASGNRASLTISGAQAEDDAEYYCSSRDKSGSRLSVFGGGTKLTVL
# B2: 10E8 IgG alanine variant E53A (heavy chain, Kabat) (antibody, V domains shown)
# VH: B1 VH with E56A
# VL: B1 VL
# Experiments:
# [1] = molecular target: biotinylated gp41 MPER peptide RRR-(656-683)-RRK-biotin (HIV-1); experiment: SPR: biotinylated MPER peptide on an SA chip, Fab as analyte, 1:1 Langmuir fit
# [2] = molecular target: soluble gp41 MPER peptide RRR-(656-683)-RRR (HIV-1); experiment: SPR: variant IgG captured on an anti-human IgG chip, MPER peptide as analyte
Binder,Kd [1],fold decrease in affinity relative to wild type 10E8 [2]
B1,17 nM,
B2,,60 fold
